Measurements: publication PMC10042849

Target: EndoS2_(E186L), catalytically inactive EndoS2 (Streptococcus pyogenes (serotype M49)) (UniProt T1WGN1)
Assay: NMR titration; methyl-TROSY (1H,13C HMQC) spectra of MILV methyl-labelled enzyme (45-128 µM) titrated with ligand; 2D lineshape fitting with TITAN, two-state binding model; 20 mM Tris-d11 pH* 7.50, 50 mM NaCl in D2O; 600 MHz, 298 K

**Q.** How did the Kd turn out when “Fc region of the IgG1 monoclonal antibody Rituximab (Fc-Rituximab) (from UniProt P01857 1-328) (domain or fragment)” was run?
**A.** 3.1 µM

**Q.** And the koff?
**A.** 4 s⁻¹

**Q.** And the kon?
**A.** 1.3e+06 M⁻¹ s⁻¹
